Laboratory results taken from patent US20070178531A1 (BIOCHECK, published 2007).

T1: Mouse Id1: Histidine (mouse, UniProt P20067-2 1-148, limits assumed)
T1 construct: Fusion protein made in E. coli from vector pGW07; also called m-Id1-His; not shown: His tag
T1 sequence (looked up): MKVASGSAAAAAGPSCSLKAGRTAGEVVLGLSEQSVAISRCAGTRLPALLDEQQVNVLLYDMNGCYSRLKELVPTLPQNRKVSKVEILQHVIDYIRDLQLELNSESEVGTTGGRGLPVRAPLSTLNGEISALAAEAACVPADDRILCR

T2: Human Id2: Histidine (human, UniProt Q02363 1-134, limits assumed)
T2 construct: Fusion protein made in E. coli from vector pGW07; also called h-Id2: His; not shown: His tag
T2 sequence (looked up): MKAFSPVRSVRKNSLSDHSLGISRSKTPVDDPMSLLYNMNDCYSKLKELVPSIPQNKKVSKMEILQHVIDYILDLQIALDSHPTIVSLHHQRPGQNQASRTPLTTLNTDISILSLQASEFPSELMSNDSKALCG

T3: mouse Id3 protein (mouse, UniProt P41133 1-119)
T3 sequence: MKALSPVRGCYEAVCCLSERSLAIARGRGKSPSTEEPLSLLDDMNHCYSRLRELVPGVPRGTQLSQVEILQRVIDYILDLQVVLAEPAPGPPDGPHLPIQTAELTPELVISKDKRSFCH

T4: human Id3 protein (human, UniProt Q02535 1-119 at identity 1.00))
T4 chain: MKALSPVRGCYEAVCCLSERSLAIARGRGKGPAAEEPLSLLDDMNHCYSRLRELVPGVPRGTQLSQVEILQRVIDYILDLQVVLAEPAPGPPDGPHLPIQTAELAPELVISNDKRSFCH

T5: Mouse Id3: Histidine (mouse, UniProt P41133 1-119)
T5 construct: Fusion protein made in E. coli from vector pGW07; also called m-Id3: His; Mouse Id3 (coated wells); not shown: His tag
T5 sequence: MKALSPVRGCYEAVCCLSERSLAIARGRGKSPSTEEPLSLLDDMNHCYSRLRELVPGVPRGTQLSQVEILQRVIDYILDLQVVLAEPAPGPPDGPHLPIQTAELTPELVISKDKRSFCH


Tests used:
[1] = target: T6, glutathione S-transferase (GST) (UniProt P08515 1-218 = GST); test: ELISA, Ab 0.100 µg/ml
T6 construct: also called carrier protein GST
Protocol: (§1) The rabbit monoclonal anti-human Id3 (clone #3-3) and the rabbit monoclonal anti-mouse/human Id3 (clones #6-1, 16-1, 17-3, and 42-1) produced in Example 6 were tested reactivity against the following antigens: mouse Id1:His, human Id1:His, mouse Id2:His, human Id2:His, mouse Id3:His, human Id3:His, mouse Id4:His, human Id4:His and GST.
(§2) 1. Microtiter wells (prepared in accordance with Example 6) were coated (0.1 μg/well) with mouse Id1:His, human Id1:His, human Id2:His, human Id3:His, and 1.0 μg/well with GST. [0155] 2. Antibody Diluent: 0.25% (w/v) BSA in 0.015M KPO₄ Buffer, 0.85% (w/v) NaCl, 0.1% (w/v) NaN₃, pH=7.40 [0156] 3. Rabbit monoclonal anti-human Id3 (clone #3-3) prepared in Example 7 was diluted to […] with the antibody diluent. […] 4. Rabbit monoclonal anti-mouse/human Id3 (clones #6-1, 16-1, 17-3, 42-1) prepared in Example 7 was diluted to 0.005, 0.010, 0.025, 0.05, 0.10, 0.25, and 0.50 μg/ml with the antibody diluent. […] 5. Conjugate Diluent: 50% (v/v) which consists of an aqueous solution containing Fetal Bovine Serum in 0.05 M Tris, 1% (v/v) Proclin-300, pH 7.6. [0159] 6. Conjugate: Goat anti-rabbit IgG (H+L)-HRP conjugate. [0160] 7. TMB reagent. […] 8. Stop solution (1 N HCI). Method
(§3) 1. Dispense 100 μL of antibody diluent, diluted rabbit monoclonal human Id3, and mouse/human Id3 hybridoma supernatants into appropriate wells. […] 2. Incubate at room temperature with mechanical shaking at 750 rpm for 90 minutes. [0165] 3. Remove the incubation mixture by flicking plate content into an appropriate waste container followed by rinsing the wells 5 times with distilled water. [0166] 4. Strike the wells sharply onto absorbent paper or paper towels to remove all residual water droplets. [0167] 5. Dispense 100 μL of 1:50,000 Goat Anti-Rabbit IgG-HRP Conjugate Reagent into each well. Gently mix for 5 seconds. [0168] 6. Incubate at room temperature with mechanical shaking at 750 rpm for 90 minutes. [0169] 7. Repeat procedures 3 and 4. [0170] 8. Dispense 100 μL of TMB Reagent into each well. Gently mix for 5 seconds. [0171] 9. Incubate at room temperature with mechanical shaking at 750 rpm for 20 minutes. […] 10.

[2] = target: T1, Mouse Id1: Histidine; test: ELISA, Ab 0.100 µg/ml
Protocol: as §1, §2, §3

[3] = target: T2, Human Id2: Histidine; test: ELISA, Ab 0.050 µg/ml
Protocol: as §1, §2, §3

[4] = target: T6, glutathione S-transferase (GST); test: ELISA, Ab 0.025 µg/ml
[5] = target: T3, mouse Id3 protein; test: SPR (BIACORE 2000), antibody immobilized on CM5, Id3 as analyte, 1:1 Langmuir
Protocol: (§4) Antibodies were immobilized on CM5 sensor chips. All SPR (surface plasmon resonance) assays were carried out in a BIACORE 2000 instrument. A mouse monoclonal antibody was used as reference labeled at the 2nd channel (Fc2) of the chip. Rabbit monoclonal anti-human Id3 (BCH-4/#3-3) or Rabbit monoclonal anti-mouse/human Id3 (BCH-4/#6-1, #16-1 and #17-3) was immobilized on the 4th (Fc4) channel. Final conjugation of antibodies on chip surface was 1878 RU for BCH-4#3-3, BCH-4/#6-1, BCH-4/#16-1, or BCH-3/#17-3. Mouse Id-3 and human Id-3 were applied as mobile analytes. The binding assays were carried out in HBS-P buffer (10 mM HEPES, pH 7.4, containing 150 mM sodium chloride, 0.005% surfactant P-20 detergent and 0.12% glycerol). Kinetics were determined with 8 different analyte concentrations ranging from 3.4 nM to 573 nM. For analyses, 125 μl of analyte were injected (Kinject protocol) at 30 μl/min and the dissociation lasted for 240 seconds at the same flow rate. The surface was regenerated by washing with 50 μl solution of 100 mM glycine and 100 mM of HCl, pH 1.81, at 60 μl/min and the extra cleaning protocol was followed. The kinetic analyses of sensograms were based on the Langmuir (1:1) binding model. Both association rate constant and dissociation rate constants for the interaction of mouse Id-3 and human Id-3 with the immobilized antibodies were determined from the analysis of sensograms using the Biaevaluation software, version 3.0. All binding curves were corrected for background and bulk refractive index contribution by subtraction of the reference flow cells. Models were fitted globally across the data sets. All experiments and analyses were duplicated.

[6] = target: T4, human Id3 protein; test: as above
Protocol: as §4

[7] = target: T5, Mouse Id3: Histidine; test: ELISA, Ab 0.100 µg/ml
Protocol: as §1, §2, §3

T6 sequence (P08515 whole entry): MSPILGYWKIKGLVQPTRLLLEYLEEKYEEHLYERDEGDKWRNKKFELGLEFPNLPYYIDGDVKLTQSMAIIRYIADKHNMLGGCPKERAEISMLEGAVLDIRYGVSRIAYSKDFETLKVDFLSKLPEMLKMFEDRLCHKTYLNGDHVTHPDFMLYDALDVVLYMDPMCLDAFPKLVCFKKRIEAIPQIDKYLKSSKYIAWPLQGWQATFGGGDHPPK

Binder | A450 [1] [A450] | A450 [2] [A450] | A450 [3] [A450] | A450 [4] [A450] | Ka [5] [M⁻¹] | Ka [6] [M⁻¹] | A450 [7] [A450]
rabbit monoclonal anti-human Id3, clone #BCH-4/#3-3 (antibody, V domains shown, Rabbit IgG from a rabbit hybridoma; also called h Id3 MoAb 3-3) VH: QSVEESGGRLVTPGTPLTLTCTVSGIDLSSYAMSWVRQAPGKGLEWIGVIFPSNNVYYASWAKGRFTISKTSTTVDLKITSPTTEDTATYFCASMGAFDSWGPGTLVTVSS VL: QVLTQTPSPVSAAVGGTVTINCQASQSIYNDNDLAWFQQKPGQPPKLLIYDASTLTSGVPSRFKGSGSGTQFTLTISDLDCDDAATYYCAARYSGNIYGFGGGTEVVVK | 0.048 | 0.047 | 0.048 | 0.048 |  |  | 
rabbit monoclonal anti-mouse/human Id3, clone #BCH-4/#16-1 (antibody, V domains shown, Rabbit IgG from a rabbit hybridoma; also called m/h Id3 MoAb 16-1) VH: QSVEESGGRLVTPGTPLTLTCTASGFSLSSYYIHWVRQAPGKALEWIGYISDGGTTYYASWAKGRFTISKTSSTTVDLKMTSLTTEDTATYFCARQGFNIWGPGTLVTVSL VL: AVLTQTPSPVSAAVGGTVTISCQSSQSVYNNNWLSWFQQKSGQPPKLLIYETSKLESGVPSRFKGSGSGTQFTLTIIDVQCDDAATYYCLGGYWTTSDNNIFGGGTEVVVK | 0.049 | 0.047 | 0.044 | 0.048 | 2.42e+09 | 1.89e+11 | 2.28
rabbit monoclonal anti-mouse/human Id3, clone #BCH-4/#17-3 (antibody, V domains shown, Rabbit IgG from a rabbit hybridoma; also called m/h Id3 MoAb 17-3; BCH-3/#17-3) VH: QSVEESGGRLVTPGTPLTLTCTASGFSLSNVYIHWVRQAPGKGLEWIGYISDGDTARYATWAKGRFTISKTSSTTVNLKMTSLTTEDTATYFCARQGFNIWGPGTLVTVSL VL: AVLTQTPSPVSAAVGGTVSISCQSSQSVWNNNWLSWFQQKPGQPPKLLIYETSKLESGVPSRFKGSGSGTQFTLTISDVQCDDAATYYCLGGYWTTSDNNVFGGGTEVVVK | 0.052 | 0.051 | 0.049 | 0.045 | 3.32e+11 | 7.35e+10 | 2.91
rabbit monoclonal anti-mouse/human Id3, clone #BCH-4/#6-1 (antibody, V domains shown, Rabbit IgG from a rabbit hybridoma; also called m/h Id3 MoAb 6-1) VH: QSVEESGGRLVTPGTPLTLTCTASGFSLSNVYIHWVRQAPGKGLEWIGYISDGDTARYATWAKGRFTISKTSSTTVNLKMTSLTTEDTATYFCARQGFNIWGPGTLVTVSL VL: AVLTQTPSPVSAAVGGTVSISCQSSQSVWNNNWLSWFQQKPGQPPKLLIYETSKLESGVPSRFKGSGSGTQFTLTISDVQCDDAATYYCLGGYWTTSDNNVFGGGTEVVVK | 0.047 | 0.049 | 0.046 | 0.049 | 5.26e+08 | 4.13e+11 | 2.56
rabbit monoclonal anti-mouse/human Id3, clone #BCH-4/#42-1 (antibody, V domains shown, Rabbit IgG from a rabbit hybridoma; also called m/h Id3 MoAb 42-1) VH: QSVEESGGRLVTPGTPLTLTCTASGFSLSSYYIHWVRQAPGKALEWIGYISDGGTTYYASWAKGRFTISKTSSTTVDLKMTSLTTEDTATYFCARQGFNIWGPGTLVTVSL VL: AVLTQTPSPVSAAVGGTVTISCQSSQSVYNNNWLSWFQQKSGQPPKLLIYETSKLESGVPSRFKGSGSGTQFTLTIIDVQCDDAATYYCLGGYWSTSDNNIFGGGTEVVVK | 0.049 | 0.049 | 0.047 | 0.045 |  |  | 2.87
